Publication PMC5402353 (Journal of molecular biology, 2017)
Read-outs that look alike come from different tables or passages of the source.

Tests used:
[1] = target: T1, hexYme1p (S. cerevisiae) (UniProt P32795)
T1 sequence: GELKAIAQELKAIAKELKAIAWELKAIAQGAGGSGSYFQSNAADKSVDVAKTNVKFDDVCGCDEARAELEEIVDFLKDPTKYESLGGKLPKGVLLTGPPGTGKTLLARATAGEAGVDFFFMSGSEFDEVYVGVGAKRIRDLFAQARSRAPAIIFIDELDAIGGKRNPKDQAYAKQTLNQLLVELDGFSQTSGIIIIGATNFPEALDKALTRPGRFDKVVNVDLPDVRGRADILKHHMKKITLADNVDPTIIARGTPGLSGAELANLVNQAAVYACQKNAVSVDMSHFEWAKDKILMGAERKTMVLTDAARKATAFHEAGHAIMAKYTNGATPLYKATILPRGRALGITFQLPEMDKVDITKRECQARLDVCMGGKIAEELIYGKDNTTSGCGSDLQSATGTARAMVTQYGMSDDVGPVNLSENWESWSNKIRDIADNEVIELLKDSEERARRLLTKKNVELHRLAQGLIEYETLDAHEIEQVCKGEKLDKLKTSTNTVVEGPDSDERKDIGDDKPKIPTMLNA

[2] = target: T1, hexYme1p (S. cerevisiae); remark: listed apart in the source
[3] = target: the molecule itself; test: SEC

Molecule	initial rate of degradation of 20 μM substrate by hexYme1p (min^−1 enz6^−1) [1]	initial rate of degradation by hexYme1p (min^−1 enz6^−1) [2]	other results
T13-λcI^N (from UniProt P53299 1-13)	0.22		
T9-λcI^N (from UniProt O74700 1-8)	0.03		
T10-λcI^N (from UniProt P87108 1-15)	0.7		
T12-λcI^N (from UniProt P32830 1-15)	0.33		
Tim9^D2F (natural protein) MFALNSKEQQEFQKVVEQKQMKDFMRLYSNLVERCFTDCVNDFTTSKLTNKEQTCIMKCSEKFLKHSERVGQRFQEQNAALGQGLGR			initial rate of degradation by hexYme1p, without DTT (min^−1 enz6^−1) [2]: 0.16
Tim10^2–6A (natural protein) MAAAAAGGGQPQLSSQQKIQAAEAELDLVTDMFNKLVNNCYKKCINTSYSEGELNKNESSCLDRCVAKYFETNVQVGENMQKMGQSFNAAGKF		0.05	
Tim10^F-alone (natural protein) MAFAAFAGGQPQLSSQQKIQAAEAELDLVTDMFNKLVNNCYKKCINTSYSEGELNKNESSCLDRCVAKYFETNVQVGENMQKMGQSFNAAGKF		0.43	
Tim10^F3A/F6A (natural protein) MSALGAGGGQPQLSSQQKIQAAEAELDLVTDMFNKLVNNCYKKCINTSYSEGELNKNESSCLDRCVAKYFETNVQVGENMQKMGQSFNAAGKF		0.11	
hexYme1p (enzyme, S. cerevisiae) GELKAIAQELKAIAKELKAIAWELKAIAQGAGGSGSYFQSNAADKSVDVAKTNVKFDDVCGCDEARAELEEIVDFLKDPTKYESLGGKLPKGVLLTGPPGTGKTLLARATAGEAGVDFFFMSGSEFDEVYVGVGAKRIRDLFAQARSRAPAIIFIDELDAIGGKRNPKDQAYAKQTLNQLLVELDGFSQTSGIIIIGATNFPEALDKALTRPGRFDKVVNVDLPDVRGRADILKHHMKKITLADNVDPTIIARGTPGLSGAELANLVNQAAVYACQKNAVSVDMSHFEWAKDKILMGAERKTMVLTDAARKATAFHEAGHAIMAKYTNGATPLYKATILPRGRALGITFQLPEMDKVDITKRECQARLDVCMGGKIAEELIYGKDNTTSGCGSDLQSATGTARAMVTQYGMSDDVGPVNLSENWESWSNKIRDIADNEVIELLKDSEERARRLLTKKNVELHRLAQGLIEYETLDAHEIEQVCKGEKLDKLKTSTNTVVEGPDSDERKDIGDDKPKIPTMLNA			stoichiometry N [3]: 6
Tim13^3–7A (natural protein) MGAAAAAGGGAPSQQKEAATTAKTTPNPIAKELKNQIAQELAVANATELVNKISENCFEKCLTSPYATRNDACIDQCLAKYMRSWNVISKAYISRIQNASASGEI			initial rate of degradation by hexYme1p, without DTT (min^−1 enz6^−1) [1]: 0.05
